The sequences below were run on K4 kissing-loop RNA reporter (assay: apparent KD of K4 kissing-loop reporter; higher = weaker reporter binding). Conditions: Eterna round: R107; input ligand: none.
Experimental: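 RNA-MaP round R107: designed RNA switches with theophylline, tryptophan, arginine or FMN aptamers are transcribed on-chip within common flanks. They are titrated with a labelled K4 kissing-loop RNA reporter in RNA-MaP buffer (100 mM Tris pH 7.5, 80 mM KCl, 4 mM MgCl2), without ligand or with the indicated ligand. Median apparent KD per design.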
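Note: bound reporter read as fluorescence of individual clusters on recovered sequencing chips by microscopy, with normalized cluster intensities fitted with a binding model.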

Row | Sequence | apparent KD of K4 kissing-loop reporter [nM]
1 | UCGAUGGCCAGCGAUACCAGCCCAGUGAUGUUGGGCACAUGGUUGCGGGAAAUCCCAUUGGGCCCUUGGCAGCGCUUGCAUAGGU [Cezaat] | 162
2 | CAAAUGUUGUCAGGAUAUGAGCGCAGUGAUGUUGCGGUUGUAUUUAUGACUGGAGCAGCGUAAGCCUCAGAAGGGACAAGUUGCC [Qubioran] | 106
3 | AGCUGUAGCAGAAGGAGCGACAGUUAUUCUGAUAGUACUCUGAGUGAUGUUCAGAACGACUGUCAGGUAGGUCGCUGUUACAGCU [Arg B Ex t8b] | 169
4 | UACUAUAUUCUGUCGUUUAUAUUAUUUUGUCAGGAUAUCGUUUAUUCGAGAAGGGACACUAUCUAGUGAUGUUAGAUUUUUCUUU [JR_Nu_ExcFMNA_Sub029] | 86.7
5 | AGGAUGUAGUGAUGUUAUAUAAGAAGUAAACGAGGACCGGUACGGCCGCCACUCGAAGCGGCUACUAGCGCGCGCGCGCGCGCGC [ExTryptoA.Ca] | 263
6 | GGUGUUGUUUGUGCCGCCUUCCUCGUUCCUCGAGGACCGGUACGGCCGCCACUCGAGUGAUGUUUGGGUAGCGAUCCCUGCUAGU [Bdazzled - #12 Exc. Tryptophan A] | 1000
7 | AUCGUUGUCUGAGGAUAUCGGUUAUCUGUAGUGAUGUUACAGUAUAUUGAUAUUAAAGAUUCUAUUCGAGAAGGCAGACAACGUA [JR_Nu3_ExcFMNB_Sub023] | 67.2
8 | UCGGGCGGCUGAAGGAGCGGGCGGGCCCGAGUGAUGUUCGGGUGGGCUGUGAGGCCCGGAGCCCAGGUAGGUCGCGGUUCCGCCC [#2 Same State - Arginine B Attempt #28 (HarryS)] | 157
9 | GGUUCCUCAGUGAUGUUGAGGUGACCUCGGCAGGAUAUAGGCAUUACUAGAAGGGCCAAAAGAACCCUGUGUAGCGACACAGGGA [Beerma] | 329
10 | AAGGUAUCACCAACUUGUAACAUAGGUGAUACCAGCAUCGAAAGAUGCCCUUGGCAGCACCAACUUGCAGUGAUGUUGCAAGUAA [(T)'-(H)'-(T1)-(T2)-(H1)-(H2)_Design11] | 152
11 | UGGAUAUCGUUUAGUCUGGUGAGCUCAGAUACCAGACUAGCGAUAGUCCCUUGGCAGCUGAUUAUGAUUGAGUGAUGUUCAAUCG [Theo A Ex t9b] | 168
12 | AGUGAUGUUUCUUUUAAGAGUGAUGUUUUUCGAGGACCGGUACGGCCGCCACUCGAGUGAUGAGUGCGUUGUUGUGAUGUUUAGU [#12 K4 Tryptophan A Exclusion] | 425
13 | GCCGUACGCAUGGAUACCAGCUGCGAAGUGAUGUUUCGGGCGAUCAAAGGAUCGCCCUACAGCCCUUGGCAGCCAUGCGUACGGC | 173
14 | CGCAGUGAUGUUGCGAGUAGAUACAGGGAAGGAGCGCGGUAGUACGCAGGUAGGUCGCCCACGCAGUGAUGUUGCGUCAUAGGGU [Exclusion Arginine A GF6] | 91
15 | AGCAUUUUCAGAAGGAGCGUGAAUUAUUCUUAAGUAUAUUAUACGAGUGAUGUUCGUAUUUCACAGGUAGGUCGCUGAUAUAGCA [JR_SSArginiB_Sub003] | 54.6
16 | AUAGGCUAGCGAAACGCUAGCCUAACAGAUACCAGUCGCGAAAGCGACCCUUGGCAGCUGCUGAGUGAUGUUCAGGUGAAUGAAU | 418
17 | UGAUACCAGACUGAUACCAGCCACAGAGUCAAAGACUCUGAUAAAGGUACCAGUGAUGUUGGCCCUUGGCAGCAGUCUGGUAUCU [TheoBX 17 #SwitchBubble #StaticStem] | 143
18 | UAACUUGCAGUGAUGUUGCAAGAACUGGAUACCAGCAUGGAAACAUGCCCUUGGCAGCCAGAAGGUAUCCUACAUCACAGAUACU [Design2] | 214
19 | GAUAUAUAGACGGCCGCCACUUAUAAAUUUCAGUGAUGUUGAAAUGUUAAAUAACGAACACAAUAGAGGACCGGGUCAAAUAUCG [Same State Tryptophan B GF 2] | 190
20 | AGGAUCCACCAGUGAUGUUGGAAAUACAUCAAGGAUAUGACGAAAGUCAGAAGGUGGUAGACUGGACAAAGUCCAGUUGGAUCCA [KL-SSFMN-A18] | 62.7
21 | GUACACUCUCGAGUGAUGUUCGGUAAUAGAGAGGAUAUCGCUUUUGCGAGAAGGCUCUGAAUGAGGAAACUCGUUCUGUGUGUAC [FMN A 20] | 1160
22 | GCGCGUCAUGUCAGCGGUGACUACGUCGAUACCAGCAGGGAAACCUGCCCUUGGCAGCGACGCGCUGGAGUGAUGUUCCGACGGC [#2 Exclusion - Theophylline A Attempt #7 (HarryS)] | 180

Same assay, conditions: Eterna round: R107; input ligand: theophylline 20 uM

Row | Sequence | apparent KD of K4 kissing-loop reporter [nM]
23 | GGGCGUGGCGCGGCCGCCACUGGGCCUGGGUGCUCGCUGAGUGAUGUUCGUCGGCGGUUGGGUCGUAGGACCGGGUGCUGGUUGG [BDazzled - #9 SS Tryptophan B] | 447
24 | AUAAACUUGCAGUGAUGUUGCAAGUAAGACUAGGAUAUCAGGAAACUGAGAAGGAGUCAUCUCCUUCAACUGCAAGAAUGAAGGA [[K1]-[K2]-[F1]-[F2]-[F]'-[K]'-[F]''_Design4] | 104
25 | UUAGAUGAUUCAUCAAGAUUGAUGAGGAAACGAGGACCGGUACGGCCGCCACUCGAGUGAUGUUCGAGAACCUCAUCAAUCAAUU [AK4.4 Exc Tryptophan A] | 154
26 | CCUAUCUCAUACGAUACCAGUCAAUGAUCUUUGAUCAAUGCCAUCACCGAGUGAUGUUCGGACCCUUGGCAGCGUAUGGGAUAGG [whbob_Ex_Theo_B_sa102] | 364
27 | UGUCAUGGAAACAUGAACGUUGAAAUAAGACGAGGACCGGUACGGCCGCCACUCGAAUAAUGGUCAGUGAUGUUGACUGGAAUAA [KL-SSTryp-A form1 sub7 #dotplot2>1] | 103

From the supplement of paper PMC9170038
